Assay results published in patent US8877192B2, “Rage fusion proteins and methods of use” (TransTech Pharma, LLC, priority 2004, dated 2014).

Molecular target: T1, amphoterin (Ampho) (Homo sapiens, UniProt P09429)
T1 sequence (P09429 1-215): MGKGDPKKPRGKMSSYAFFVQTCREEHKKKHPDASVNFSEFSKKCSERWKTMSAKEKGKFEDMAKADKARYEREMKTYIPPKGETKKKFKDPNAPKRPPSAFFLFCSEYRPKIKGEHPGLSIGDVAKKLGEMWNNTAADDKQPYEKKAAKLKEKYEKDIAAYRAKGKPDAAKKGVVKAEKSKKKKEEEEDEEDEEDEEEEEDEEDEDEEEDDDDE
Test: In vitro ligand binding (ELISA) to immobilized amphoterin
Settings: increasing dilutions of fusion protein; FIG. 7
Protocol: For example, the RAGE fusion protein may be used in a binding assay to identify potential RAGE ligands. In one example embodiment of such a binding assay, a known RAGE ligand may coated onto a solid substrate (e.g., Maxisorb plates) at a concentration of about 5 micrograms per well, where each well contains a total volume of about 100 microliters (μL). The plates may be incubated at 4° C. overnight to allow the ligand to absorb. Alternatively, shorter incubation periods at higher temperature (e.g., room temperature) may be used. […] The fusion protein bound to the immobilized ligand may be detected in a variety of ways. […] The bound complex may be detected by adding the alkaline phosphatase substrate, para-nitrophenylphosphate (PNPP), and measuring conversion of PNPP to para-nitrophenol (PNP) as an increase in absorbance at 405 nm. […] Binding was detected by the addition of an immunodetection complex containing a monoclonal mouse anti-human IgG1 diluted 1:11,000 to a final assay concentration (FAC) of 21 ng/100 μL, a biotinylated goat anti-mouse IgG diluted 1:500, to a FAC of […], and an avidin-linked alkaline phosphatase. […] Binding of the complex to the immobilized fusion protein was quantified by measuring conversion of PNPP to para-nitrophenol (PNP) which was measured spectrophotometrically at 405 nm. […]

- binding to immobilized amphoterin (absorbance at 405 nm): specifically interact
B1: TTP-4000: four domain RAGE fusion protein (SEQ ID NO: 32): human RAGE amino acids 1-251 linked to CH2 and CH3 domains of human IgG (protein)
chain: MAAGTAVGAWALVLSLWGAVVGAQNITARIGEPLVLKCKGAPKKPPQRLEWKLNTGRTEAWKVLSPQGGGPWDSVARVLPNGSLFLPAVGIQDEGIFRCQAMNRNGKETKSNYRVRVYQIPGKPEIVDSASELTAGVPNKVGTCVSEGSYPAGTLSWHLDGKPLVPNEKGVSVKEQTRRHPETGLFTLQSELMVTPARGGDPRPTFSCSFSPGLPRHRALRTAPIQPRVWEPVPLEEVQLVVEPEGGAVAPPSVFLFPPKPKDTLMISRTPEVTCVVVDVSHEDPEVKFNWYVDGVEVHNAKTKPREEQYNSTYRVVSVLTVLHQDWLNGKEYKCKVSNKALPAPIEKTISKAKGQPREPQVYTLPPSRDELTKNQVSLTCLVKGFYPSDIAVEWESNGQPENNYKTTPPVLDSDGSFFLYSKLTVDKSRWQQGNVFSCSVMHEALHNHYTQKSLSLSPGK
